Changes are numbered by the printed parent chain.

Series [1] has as its target T1, TR4DBD-CTE S189A (Homo sapiens, UniProt P49116 113-200, S189A).
T1 sequence: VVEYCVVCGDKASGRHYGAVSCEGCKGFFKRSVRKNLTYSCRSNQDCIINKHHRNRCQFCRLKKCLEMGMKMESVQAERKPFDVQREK
In words: MST.

The target in series [2] is T2, TR4DBD-CTE R168A (Homo sapiens, UniProt P49116 113-200, R168A).
T2 sequence: T1 sequence with R56A, A77S
The series can be described thus: MST.

The target in series [3] is T3, TR4DBD-CTE R191A (Homo sapiens, UniProt P49116 113-200, R191A).
T3 sequence: T1 sequence with A77S, R79A
In words: MST.

Series [4] addresses T4, TR4DBD-CTE R127C (Homo sapiens, UniProt P49116 113-200, R127C).
T4 sequence: T1 sequence with R15C, A77S
The series can be described thus: MST.

The target of series [5] is T5, TR4DBD-CTE N167K (Homo sapiens, UniProt P49116 113-200, N167K).
T5 sequence: T1 sequence with N55K, A77S
The series can be described thus: MST.

The target of series [6] is T6, TR4DBD (Homo sapiens, UniProt P49116 113-189).
T6 sequence: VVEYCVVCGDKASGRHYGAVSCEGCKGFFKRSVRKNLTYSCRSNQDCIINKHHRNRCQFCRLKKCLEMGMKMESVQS
In words: MST.

Series [7] deals with T7, TR4_(341–596), ligand-binding domain of human testicular receptor 4 (human, UniProt P49116 341-596).
T7 sequence (looked up): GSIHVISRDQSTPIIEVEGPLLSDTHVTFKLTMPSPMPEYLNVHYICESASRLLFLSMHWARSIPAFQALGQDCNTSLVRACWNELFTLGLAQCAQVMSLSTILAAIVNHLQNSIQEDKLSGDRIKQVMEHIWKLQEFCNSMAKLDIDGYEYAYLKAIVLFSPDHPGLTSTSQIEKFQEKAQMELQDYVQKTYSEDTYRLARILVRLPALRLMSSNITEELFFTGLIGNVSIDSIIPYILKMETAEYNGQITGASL
The series can be described thus: crystal structure.

B1: idRE, 23 bp DR1 (dsDNA)
DNA 1: GGCAGAGGTCAAAGGTCAAACGT
DNA 2: ACGTTTGACCTTTGACCTCTGCC
In the case of B1, the binding signal was 12 fold decrease vs WT in series [1]; 12 fold decrease vs WT in series [2]; roughly 60 fold decrease vs WT in series [3]; roughly 280 fold increase vs WT in series [4]; greater than 60 fold increase vs WT in series [5].

B2: 18 bp DR1 (dsDNA)
DNA 1: GGCAGAGGTCAAAGGTCA
DNA 2: CTGACCTTTGACCTCTGC
Consider B2, for which the Kd in series [6] came out at 38.3 µM. That is a double-digit micromolar value.

For the molecule QQPTYVALSYINRFMTDAARREQES (domain or fragment, human, UniProt Q86VZ6 51-75, looked up) [JAZF1_(51–75)], the binding result in series [7] is listed as “binds”.

These data come from PMC9943680 (Nucleic Acids Research, 2023).
